The target in the assay is T1, Rae1 (NTE-deleted), chain of the crystallized heterotrimer (mouse, UniProt Q8C570 24-368).
T1 sequence (looked up): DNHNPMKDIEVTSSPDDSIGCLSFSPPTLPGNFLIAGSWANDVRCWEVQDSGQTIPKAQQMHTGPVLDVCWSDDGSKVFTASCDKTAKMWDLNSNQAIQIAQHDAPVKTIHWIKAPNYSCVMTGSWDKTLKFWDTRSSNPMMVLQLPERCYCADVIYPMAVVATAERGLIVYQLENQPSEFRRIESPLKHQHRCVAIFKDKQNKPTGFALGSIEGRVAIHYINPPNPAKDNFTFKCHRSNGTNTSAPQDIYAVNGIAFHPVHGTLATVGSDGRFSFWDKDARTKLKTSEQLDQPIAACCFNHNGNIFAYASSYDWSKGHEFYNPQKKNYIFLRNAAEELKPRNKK
Description: crystal structure.

Experimental findings from paper PMC7604486 (Proceedings of the National Academy of Sciences of the …, 2020) are described below.

B1: Nup98 GLEBS region, chain of the crystallized heterotrimer (domain or fragment)
chain: not shown
Take B1: the binding result is reported as “binds”.
